Source: patent US20220411477A1 (MONASH UNIVERSITY, published 2022)

T1: AMH-specific type II receptor, AMHR2 (UniProt Q16671 18-573, limits assumed)
T1 sequence (looked up): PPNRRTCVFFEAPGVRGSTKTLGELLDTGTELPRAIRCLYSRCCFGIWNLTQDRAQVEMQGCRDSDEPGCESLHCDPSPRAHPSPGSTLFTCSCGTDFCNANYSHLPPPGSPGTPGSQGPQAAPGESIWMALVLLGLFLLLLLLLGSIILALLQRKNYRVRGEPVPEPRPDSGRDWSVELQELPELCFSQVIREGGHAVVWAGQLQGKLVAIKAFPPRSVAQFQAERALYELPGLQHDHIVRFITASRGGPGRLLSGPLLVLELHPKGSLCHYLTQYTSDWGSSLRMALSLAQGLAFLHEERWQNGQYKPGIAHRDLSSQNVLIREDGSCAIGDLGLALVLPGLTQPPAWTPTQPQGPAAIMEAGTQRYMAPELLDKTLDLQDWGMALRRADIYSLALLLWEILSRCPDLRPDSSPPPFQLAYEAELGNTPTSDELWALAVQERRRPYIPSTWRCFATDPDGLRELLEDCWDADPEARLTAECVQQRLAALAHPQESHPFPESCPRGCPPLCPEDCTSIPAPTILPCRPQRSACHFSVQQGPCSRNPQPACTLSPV

B1: hAMH+SCUT+RSA (Wild type) AMH (ligand)
chain 1: HHHHHHPAVGTSGLIFREDLDWPPGSPQEPLCLVALGGDSNGSSSPLRVVGALSAYEQAFLGAVQRARWGPRDLATFGVCNTGDRQAALPSLRRLGAWLQDPGGQRLVVLHLEEVTWEPTPSLRFQEPPPGGAGPPELALLVLYPGPGPEVTVTRAGLPGAQSLCPSRDTRYLVLAVDRPAGAWRGSGLALTLQPRGEDSRLSTARLQALLFGDDHRCFTRMTPALLLLPRSEPAPLPAHGQLDTVPFPPPRPSAELEESPPSADPFLETLTRLVRALRVPPARASAPRLALDPDALAGFPQGLVNLSDPAALERLLDGEEPLLLLLRPTAATTGDPAPLHDPTSAPWATALARRVAAELQAAAAELRSLPGLPPATAPLLARLLALCPGGPGGLGDPLRALLLLKALQGLRVEWRGRDPRGPGISSRKKR
chain 2: SVSSSAGATAADGPCALRELSVDLRAERSVLIPETYQANNCQGVCGWPQSDRNPRYGNHVVLLLKMQARGAALARPPCCVPTAYAGKLLISLSEERISAHHVPNMVATECGCR
B2: hAMH+SCUT+RSA G533H mutant (ligand)
chain 1: HHHHHHPAVGTSGLIFREDLDWPPGSPQEPLCLVALGGDSNGSSSPLRVVGALSAYEQAFLGAVQRARWGPRDLATFGVCNTGDRQAALPSLRRLGAWLQDPGGQRLVVLHLEEVTWEPTPSLRFQEPPPGGAGPPELALLVLYPGPGPEVTVTRAGLPGAQSLCPSRDTRYLVLAVDRPAGAWRGSGLALTLQPRGEDSRLSTARLQALLFGDDHRCFTRMTPALLLLPRSEPAPLPAHGQLDTVPFPPPRPSAELEESPPSADPFLETLTRLVRALRVPPARASAPRLALDPDALAGFPQGLVNLSDPAALERLLDGEEPLLLLLRPTAATTGDPAPLHDPTSAPWATALARRVAAELQAAAAELRSLPGLPPATAPLLARLLALCPGGPGGLGDPLRALLLLKALQGLRVEWRGRDPRGPGISSRKKR
chain 2: SVSSSAGATAADGPCALRELSVDLRAERSVLIPETYQANNCQGVCGWPQSDRNPRYGNHVVLLLKMQARGAALARPPCCVPTAYAHKLLISLSEERISAHHVPNMVATECGCR
B3: hAMH+SCUT+RSA L535M mutant (ligand)
chain 1: HHHHHHPAVGTSGLIFREDLDWPPGSPQEPLCLVALGGDSNGSSSPLRVVGALSAYEQAFLGAVQRARWGPRDLATFGVCNTGDRQAALPSLRRLGAWLQDPGGQRLVVLHLEEVTWEPTPSLRFQEPPPGGAGPPELALLVLYPGPGPEVTVTRAGLPGAQSLCPSRDTRYLVLAVDRPAGAWRGSGLALTLQPRGEDSRLSTARLQALLFGDDHRCFTRMTPALLLLPRSEPAPLPAHGQLDTVPFPPPRPSAELEESPPSADPFLETLTRLVRALRVPPARASAPRLALDPDALAGFPQGLVNLSDPAALERLLDGEEPLLLLLRPTAATTGDPAPLHDPTSAPWATALARRVAAELQAAAAELRSLPGLPPATAPLLARLLALCPGGPGGLGDPLRALLLLKALQGLRVEWRGRDPRGPGISSRKKR
chain 2: SVSSSAGATAADGPCALRELSVDLRAERSVLIPETYQANNCQGVCGWPQSDRNPRYGNHVVLLLKMQARGAALARPPCCVPTAYAGKMLISLSEERISAHHVPNMVATECGCR
B4: hAMH+SCUT+RSA G533S mutant (ligand)
chain 1: HHHHHHPAVGTSGLIFREDLDWPPGSPQEPLCLVALGGDSNGSSSPLRVVGALSAYEQAFLGAVQRARWGPRDLATFGVCNTGDRQAALPSLRRLGAWLQDPGGQRLVVLHLEEVTWEPTPSLRFQEPPPGGAGPPELALLVLYPGPGPEVTVTRAGLPGAQSLCPSRDTRYLVLAVDRPAGAWRGSGLALTLQPRGEDSRLSTARLQALLFGDDHRCFTRMTPALLLLPRSEPAPLPAHGQLDTVPFPPPRPSAELEESPPSADPFLETLTRLVRALRVPPARASAPRLALDPDALAGFPQGLVNLSDPAALERLLDGEEPLLLLLRPTAATTGDPAPLHDPTSAPWATALARRVAAELQAAAAELRSLPGLPPATAPLLARLLALCPGGPGGLGDPLRALLLLKALQGLRVEWRGRDPRGPGISSRKKR
chain 2: SVSSSAGATAADGPCALRELSVDLRAERSVLIPETYQANNCQGVCGWPQSDRNPRYGNHVVLLLKMQARGAALARPPCCVPTAYASKLLISLSEERISAHHVPNMVATECGCR
B5: hAMH+SCUT+RSA G533K mutant (ligand)
chain 1: HHHHHHPAVGTSGLIFREDLDWPPGSPQEPLCLVALGGDSNGSSSPLRVVGALSAYEQAFLGAVQRARWGPRDLATFGVCNTGDRQAALPSLRRLGAWLQDPGGQRLVVLHLEEVTWEPTPSLRFQEPPPGGAGPPELALLVLYPGPGPEVTVTRAGLPGAQSLCPSRDTRYLVLAVDRPAGAWRGSGLALTLQPRGEDSRLSTARLQALLFGDDHRCFTRMTPALLLLPRSEPAPLPAHGQLDTVPFPPPRPSAELEESPPSADPFLETLTRLVRALRVPPARASAPRLALDPDALAGFPQGLVNLSDPAALERLLDGEEPLLLLLRPTAATTGDPAPLHDPTSAPWATALARRVAAELQAAAAELRSLPGLPPATAPLLARLLALCPGGPGGLGDPLRALLLLKALQGLRVEWRGRDPRGPGISSRKKR
chain 2: SVSSSAGATAADGPCALRELSVDLRAERSVLIPETYQANNCQGVCGWPQSDRNPRYGNHVVLLLKMQARGAALARPPCCVPTAYAKKLLISLSEERISAHHVPNMVATECGCR
B6: hAMH mutant L536M (ligand)
chain 1: HHHHHHPAVGTSGLIFREDLDWPPGSPQEPLCLVALGGDSNGSSSPLRVVGALSAYEQAFLGAVQRARWGPRDLATFGVCNTGDRQAALPSLRRLGAWLQDPGGQRLVVLHLEEVTWEPTPSLRFQEPPPGGAGPPELALLVLYPGPGPEVTVTRAGLPGAQSLCPSRDTRYLVLAVDRPAGAWRGSGLALTLQPRGEDSRLSTARLQALLFGDDHRCFTRMTPALLLLPRSEPAPLPAHGQLDTVPFPPPRPSAELEESPPSADPFLETLTRLVRALRVPPARASAPRLALDPDALAGFPQGLVNLSDPAALERLLDGEEPLLLLLRPTAATTGDPAPLHDPTSAPWATALARRVAAELQAAAAELRSLPGLPPATAPLLARLLALCPGGPGGLGDPLRALLLLKALQGLRVEWRGRDPRGPGISSRKKR
chain 2: SVSSSAGATAADGPCALRELSVDLRAERSVLIPETYQANNCQGVCGWPQSDRNPRYGNHVVLLLKMQARGAALARPPCCVPTAYAGKLMISLSEERISAHHVPNMVATECGCR
B7: hAMH+SCUT+RSA double mutant G533A+L535M (ligand)
chain 1: HHHHHHPAVGTSGLIFREDLDWPPGSPQEPLCLVALGGDSNGSSSPLRVVGALSAYEQAFLGAVQRARWGPRDLATFGVCNTGDRQAALPSLRRLGAWLQDPGGQRLVVLHLEEVTWEPTPSLRFQEPPPGGAGPPELALLVLYPGPGPEVTVTRAGLPGAQSLCPSRDTRYLVLAVDRPAGAWRGSGLALTLQPRGEDSRLSTARLQALLFGDDHRCFTRMTPALLLLPRSEPAPLPAHGQLDTVPFPPPRPSAELEESPPSADPFLETLTRLVRALRVPPARASAPRLALDPDALAGFPQGLVNLSDPAALERLLDGEEPLLLLLRPTAATTGDPAPLHDPTSAPWATALARRVAAELQAAAAELRSLPGLPPATAPLLARLLALCPGGPGGLGDPLRALLLLKALQGLRVEWRGRDPRGPGISSRKKR
chain 2: SVSSSAGATAADGPCALRELSVDLRAERSVLIPETYQANNCQGVCGWPQSDRNPRYGNHVVLLLKMQARGAALARPPCCVPTAYAAKMLISLSEERISAHHVPNMVATECGCR
B8: hAMH mutant S538A (ligand)
chain 1: HHHHHHPAVGTSGLIFREDLDWPPGSPQEPLCLVALGGDSNGSSSPLRVVGALSAYEQAFLGAVQRARWGPRDLATFGVCNTGDRQAALPSLRRLGAWLQDPGGQRLVVLHLEEVTWEPTPSLRFQEPPPGGAGPPELALLVLYPGPGPEVTVTRAGLPGAQSLCPSRDTRYLVLAVDRPAGAWRGSGLALTLQPRGEDSRLSTARLQALLFGDDHRCFTRMTPALLLLPRSEPAPLPAHGQLDTVPFPPPRPSAELEESPPSADPFLETLTRLVRALRVPPARASAPRLALDPDALAGFPQGLVNLSDPAALERLLDGEEPLLLLLRPTAATTGDPAPLHDPTSAPWATALARRVAAELQAAAAELRSLPGLPPATAPLLARLLALCPGGPGGLGDPLRALLLLKALQGLRVEWRGRDPRGPGISSRKKR
chain 2: SVSSSAGATAADGPCALRELSVDLRAERSVLIPETYQANNCQGVCGWPQSDRNPRYGNHVVLLLKMQARGAALARPPCCVPTAYAGKLLIALSEERISAHHVPNMVATECGCR
B9: hAMH mutant L536I (ligand)
chain 1: HHHHHHPAVGTSGLIFREDLDWPPGSPQEPLCLVALGGDSNGSSSPLRVVGALSAYEQAFLGAVQRARWGPRDLATFGVCNTGDRQAALPSLRRLGAWLQDPGGQRLVVLHLEEVTWEPTPSLRFQEPPPGGAGPPELALLVLYPGPGPEVTVTRAGLPGAQSLCPSRDTRYLVLAVDRPAGAWRGSGLALTLQPRGEDSRLSTARLQALLFGDDHRCFTRMTPALLLLPRSEPAPLPAHGQLDTVPFPPPRPSAELEESPPSADPFLETLTRLVRALRVPPARASAPRLALDPDALAGFPQGLVNLSDPAALERLLDGEEPLLLLLRPTAATTGDPAPLHDPTSAPWATALARRVAAELQAAAAELRSLPGLPPATAPLLARLLALCPGGPGGLGDPLRALLLLKALQGLRVEWRGRDPRGPGISSRKKR
chain 2: SVSSSAGATAADGPCALRELSVDLRAERSVLIPETYQANNCQGVCGWPQSDRNPRYGNHVVLLLKMQARGAALARPPCCVPTAYAGKLIISLSEERISAHHVPNMVATECGCR

Biological target: T1, AMH-specific type II receptor, AMHR2
Experiment: cell-based or functional assay

Row | Binder | AMH activity relative to wild type (%) | EC50 in COV434 BRE-Luc assay [ng/mL] | Maximal response relative to wild-type (%) | Potency relative to ‘wild-type’
1 | B1 | 100 | ~6 |  | 
2 | B2 | 100 | ~6 |  | 
3 | B3 | 100 | ~6 |  | 
4 | B4 | 350 | ~1.8 | ~140 | ~3 fold more potent
5 | B5 | 500 | ~1.2 | ~190 | ~5 fold more potent
6 | B6 |  |  | ~80 | ~3 fold less potent
7 | B7 | 100 | ~6 |  | 
8 | B8 |  |  | ~65 | ~4 fold less potent
9 | B9 |  |  | ~65 | ~7 fold less potent
